Laboratory results: article PMC10191176 (Nature immunology, 2022)
Positions count from the first letter of the chain named. Names may count otherwise.

Experiments:
[1] = target: HLA-DR4 (DRA*0101/DRB1*0401) with the linked p24 HIV Gag peptide 164-183 (HLA-DR4^HIV) (human | HIV); assay: SPR
[2] = target: HLA-DR4 loaded with CLIP peptide (UniProt P04233); assay: SPR
[3] = target: T1, yeast-displayed FGL1^FD E250A/E251A/D252A (human, UniProt Q08830 58-312, E250A | E251A | D252A); assay: flow cytometry on cells
T1 sequence (looked up): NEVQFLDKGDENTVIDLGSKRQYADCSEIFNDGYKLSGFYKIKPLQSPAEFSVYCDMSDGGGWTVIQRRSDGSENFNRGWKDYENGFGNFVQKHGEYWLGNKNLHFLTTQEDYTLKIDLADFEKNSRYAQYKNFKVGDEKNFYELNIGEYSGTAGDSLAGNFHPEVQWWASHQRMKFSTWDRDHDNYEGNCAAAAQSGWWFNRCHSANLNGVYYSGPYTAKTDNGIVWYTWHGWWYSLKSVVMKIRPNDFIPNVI

[4] = target: T2, yeast-displayed FGL1^FD Y244A/E245A (human, UniProt Q08830 58-312, Y244A | E245A); assay: flow cytometry on cells
T2 sequence (looked up): T1 sequence (looked up) with Y187A, E188A, A193E, A194E, A195D

[5] = target: the molecule itself; assay: SEC-MALS

Chain of HLA-DR4 loaded with CLIP peptide (P04233 whole entry, looked up, tested part not stated): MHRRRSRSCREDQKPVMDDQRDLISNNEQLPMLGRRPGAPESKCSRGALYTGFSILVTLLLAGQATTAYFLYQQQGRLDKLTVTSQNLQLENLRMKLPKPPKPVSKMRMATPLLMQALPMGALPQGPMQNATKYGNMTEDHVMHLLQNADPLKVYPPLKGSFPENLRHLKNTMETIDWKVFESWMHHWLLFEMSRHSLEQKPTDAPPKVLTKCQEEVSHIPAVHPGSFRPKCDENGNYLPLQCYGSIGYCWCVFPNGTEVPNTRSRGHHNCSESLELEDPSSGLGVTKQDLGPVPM

With “hLAG3* (human LAG3 extracellular domain with the M171I mutation) (from UniProt P18627 23-450) (domain or fragment)” the Kd [1] was 5.2 µM and the Kd [2] was 2.45 µM.

B1: hLAG3* (human LAG3 extracellular domain with the M171I mutation) (domain or fragment, UniProt P18627 23-450, looked up)
chain: LQPGAEVPVVWAQEGAPAQLPCSPTIPLQDLSLLRRAGVTWQHQPDSGPPAAAPGHPLAPGPHPAAPSSWGPRPRRYTVLSVGPGGLRSGRLPLQPRVQLDERGRQRGDFSLWLRPARRADAGEYRAAVHLRDRALSCRLRLRLGQASITASPPGSLRASDWVILNCSFSRPDRPASVHWFRNRGQGRVPVRESPHHHLAESFLFLPQVSPMDSGPWGCILTYRDGFNVSIMYNLTVLGLEPPTPLTVYAGAGSRVGLPCRLPAGVGTRSFLTAKWTPPGGGPDLLVTGDNGDFTLRLEDVSQAQAGTYTCHIHLQEQQLNATVTLAIITVTPKSFGSPGSLGKLLCEVTPVSGQERFVWSSLDTPSQRSFSGPWLEAQEAQLLSQPWQCQLYQGERLLGAAVYFTELSSPGAQRSGRAPGALPAGHL
modifications: biotin on the BAP tag (BirA ligase) in binding experiments
For B1, the “reduction of binding relative to wild-type FGL1^FD” value [3] was 80% and the “reduction of binding relative to wild-type FGL1^FD” value [4] was 75%.

B2: murine LAG3 extracellular domain (mLAG3, residues 23-442) (domain or fragment, mouse, UniProt Q61790 23-442, looked up)
chain: SGPGKELPVVWAQEGAPVHLPCSLKSPNLDPNFLRRGGVIWQHQPDSGQPTPIPALDLHQGMPSPRQPAPGRYTVLSVAPGGLRSGRQPLHPHVQLEERGLQRGDFSLWLRPALRTDAGEYHATVRLPNRALSCSLRLRVGQASMIASPSGVLKLSDWVLLNCSFSRPDRPVSVHWFQGQNRVPVYNSPRHFLAETFLLLPQVSPLDSGTWGCVLTYRDGFNVSITYNLKVLGLEPVAPLTVYAAEGSRVELPCHLPPGVGTPSLLIAKWTPPGGGPELPVAGKSGNFTLHLEAVGLAQAGTYTCSIHLQGQQLNATVTLAVITVTPKSFGLPGSRGKLLCEVTPASGKERFVWRPLNNLSRSCPGPVLEIQEARLLAERWQCQLYEGQRLLGATVYAAESSSGAHSARRISGDLKGGHL
For B2, the “stoichiometry N” value [5] was 2.
